{
  "source": "paper PMC3513293",
  "about": "(PLoS ONE, 2012)",
  "key": {"[1]": {"target": "T1, p97/Valosin-containing protein (VCP), full length (UniProt P55072 1-806)", "T1 construct": "Homohexamer by gel filtration and DLS; also called p97/VCP; full length p97; source: E. coli Rosetta DE3, purified (nickel IMAC, Superose 6 gel filtration; hexameric 13.5 ml fraction)", "T1 sequence (P55072 whole entry)": "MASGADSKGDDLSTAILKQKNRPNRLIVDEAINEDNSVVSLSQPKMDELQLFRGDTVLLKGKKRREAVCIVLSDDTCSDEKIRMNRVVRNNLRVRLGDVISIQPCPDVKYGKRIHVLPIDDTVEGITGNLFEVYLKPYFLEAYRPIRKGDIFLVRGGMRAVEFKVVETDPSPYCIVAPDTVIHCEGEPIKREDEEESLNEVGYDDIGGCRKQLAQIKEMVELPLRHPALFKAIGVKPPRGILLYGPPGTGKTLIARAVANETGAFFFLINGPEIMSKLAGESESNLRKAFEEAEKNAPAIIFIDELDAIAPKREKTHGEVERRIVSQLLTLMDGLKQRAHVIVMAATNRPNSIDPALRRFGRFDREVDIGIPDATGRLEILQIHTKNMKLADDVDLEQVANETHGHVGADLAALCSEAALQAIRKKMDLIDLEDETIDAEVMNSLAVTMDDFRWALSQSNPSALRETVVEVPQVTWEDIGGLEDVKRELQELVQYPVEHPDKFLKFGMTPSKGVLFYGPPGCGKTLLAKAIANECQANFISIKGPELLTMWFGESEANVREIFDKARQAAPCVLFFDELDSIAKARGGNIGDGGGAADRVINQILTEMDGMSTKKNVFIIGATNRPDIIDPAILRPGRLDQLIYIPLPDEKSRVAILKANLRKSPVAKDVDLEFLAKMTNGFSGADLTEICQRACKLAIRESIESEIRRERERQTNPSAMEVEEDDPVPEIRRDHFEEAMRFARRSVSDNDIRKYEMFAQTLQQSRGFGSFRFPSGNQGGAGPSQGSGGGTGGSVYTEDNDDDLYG", "experiment": "SPR; Biacore 3000; p47 immobilised on CM5 by amine coupling; p97/VCP injected, 30 μl/min, 25°C, PBS; Langmuir 1:1 fit", "conditions": "both partners purified"}, "[2]": {"target": "T1, p97/Valosin-containing protein (VCP), …", "experiment": "SPR; Biacore 3000; p97/VCP immobilised on CM5 by amine coupling; two-fold dilution series of p47 (from 1.92 μM) or UN (from 1.88 μM) injected at 30 μl/min, 25°C, PBS with 5 mM β-mercaptoethanol and 0.005% p20; no nucleotide; Langmuir 1:1 fit (p47) or Interaction Map Analysis (UN)", "conditions": "both partners purified"}, "[3]": {"target": "the molecule itself", "experiment": "SEC; Superose 6 10/300 GL in PBS with 5 mM β-mercaptoethanol and 0.005% p20; calibrated with thyroglobulin, ferritin, lactate dehydrogenase and BSA"}},
  "data": [
    {"binder": "p47 (natural protein, UniProt O35987 1-370, looked up, p47, adaptor protein of p97/VCP; Homotrimer by gel filtration; the printed list of Addgene numbers (17229,21266,21267,21268) has one number more than the three plasmids named, so 21268 may be p47; source: E. coli Rosetta DE3, purified (nickel IMAC, Superose 6 gel filtration; 16.25 ml fraction)) MAEERQDALREFVAVTGAEEDRARFFLESAGWDLQIALASFYEDGGDEDIVTISQATPSSVSRGTAPSDNRVTSFRDLIHDQDEEEEEEEGQRFYAGGSERSGQQIVGPPRKKSPNELVDDLFKGAKEHGAVAVERVTKSPGETSKPRPFAGGGYRLGAAPEEESAYVAGERRRHSGQDVHVVLKLWKTGFSLDNGDLRSYQDPSNAQFLESIRRGEVPAELRRLAHGGQVNLDMEDHRDEDFVKPKGAFKAFTGEGQKLGSTAPQVLNTSSPAQQAENEAKASSSILINEAEPTTNIQIRLADGGRLVQKFNHSHRISDIRLFIVDARPAMAATSFVLMTTFPNKELADENQTLKEANLLNAVIVQRLT", "values": [
      {"measurement": "Kd", "setting": "[1]", "result": 0.0313, "unit": "µM"},
      {"measurement": "Kd", "setting": "[2]", "result": "~5", "unit": "µM"},
      {"measurement": "stoichiometry N", "setting": "[3]", "result": 3}
    ]}
  ]
}
